Experimental findings from PMC5871780, “Klf4 glutamylation is required for cell reprogramming and early embryonic development in mice” are described below.

One data set has as its target GST-Klf4-E381A (Mus musculus, UniProt Q60793 1-483, E381A). Description: EMSA; affinity comparable to wt; LightShift Chemiluminescent EMSA Kit (Thermo Scientific), per manufacturer; buffer, salt, pH and temperature not stated. To be noted: protein: recombinant; tags: GST (N-term, pGEX-6P-1); blunt. (In general: In EMSA bound probe runs differently from free probe, usually more slowly.)

Another data set addresses GST-Klf4-wt (Mus musculus, UniProt Q60793 1-483). Briefly: EMSA; unlabeled probe (1x or 100x) competes; LightShift Chemiluminescent EMSA Kit (Thermo Scientific), per manufacturer; buffer, salt, pH and temperature not stated. To be noted: protein: recombinant; tags: GST (N-term, pGEX-6P-1); blunt.

GST-Klf4-E381A, sequence (Q60793 whole entry E381A): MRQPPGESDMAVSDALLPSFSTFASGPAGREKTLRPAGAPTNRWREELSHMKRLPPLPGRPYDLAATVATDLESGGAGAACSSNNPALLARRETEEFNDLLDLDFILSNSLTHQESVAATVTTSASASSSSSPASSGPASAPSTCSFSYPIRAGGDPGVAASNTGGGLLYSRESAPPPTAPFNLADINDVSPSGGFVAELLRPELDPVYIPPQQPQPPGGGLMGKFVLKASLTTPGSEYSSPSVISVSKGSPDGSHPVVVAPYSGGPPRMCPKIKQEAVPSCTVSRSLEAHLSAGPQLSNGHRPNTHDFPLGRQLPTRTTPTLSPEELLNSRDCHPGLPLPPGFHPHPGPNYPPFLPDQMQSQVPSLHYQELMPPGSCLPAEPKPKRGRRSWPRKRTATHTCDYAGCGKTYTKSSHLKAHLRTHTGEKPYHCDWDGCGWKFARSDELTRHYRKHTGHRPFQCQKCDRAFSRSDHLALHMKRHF
GST-Klf4-wt, sequence (Q60793 whole entry): as the sequence (Q60793 whole entry E381A) above, with A381E counted along it

B1: Nanog promoter probe (dsDNA)
DNA 1: GCCGCCTGGGTGCCTGGGAGAATAGGGGGTGGGTAGGGTAGGAGGCTTG
DNA 2: CAAGCCTCCTACCCTACCCACCCCCTATTCTCCCAGGCACCCAGGCGGC
In the case of B1, the binding result with GST-Klf4-E381A and with GST-Klf4-wt was “binds” each time.
